A short description of this data set: soluble on expression in E. coli; label from the status in PepcDB or PDB records.
Regarding “MIPLVSIIVPMYNVEPFIEECIDSLLRQTLSDIEIILVNDGTPDRSGEIAEDYAKRDARIRVIHQANGGLSSARNTGIKAARGTYIGFVDGDDYVSSAMFQRLTEEAEQNQLDIVGCGFYKQSSDRRTYVPPQLEANRVLTKPEMTEQLKHAHETRFIWYVWRYLYRRELFERANLLFDEDIRFAEDSPFNLSAFREAERVKMLDEGLYIYRENPNSLTEIPYKPAMDEHLQKQYQAKIAFYNHYGLAGACKEDLNVYICRHQLPMLLANACASPNSPKDIKKKIRQILSYDMVRQAVRHTPFQHEKLLRGERLVLALCKWRLTFLIKLFFEQRGTMKGSAKQALEHHHHHH”, the “soluble on expression in E. coli” value was “not soluble”.

Consider “MADIVQLKENGVVKYMKTHADAIDGVEGKLVKAVGNETVLGTKNFQDGIQIGGKSVSVNAKPTYEVVKDYWDGTGAYLTESQSVTISNSSNVDEIVLIFSRYNDNGGGIVHSIPVTPNITKLKYELPAVAWVGSASTDPTIAYKKISISKSGTSLVITGDTANTLNEANKKIVFREIGVMRRK”, for which the “soluble on expression in E. coli” value is on record as “not soluble”. The entry for “GPGSMRGSDAMATHASRWRPPQNPAAVRKYSNETAAPQPPAKIIMEDHSLAEVFRRSAAFQRILAYVQGCSEAVESTPNHQRLSATVDDCDDTVRYLVTDYLPRLHDIVTAIPLEDMAQQRFGNRAKRVFHARLEETVVADMEKLVRTFPTSAGRSEEAITDMATEVAAYVMDSFGNATRLDYGSGHELHFFIVIMICLEEHGDGGGSLKDEPAVLVPLEVPPPPPVPPMERAEVRKRRQDYIFYIFHEYMRLVRRLQKRYSLEPAGSHGVWGLDDYHHIPYIFGGAQLINAEVQPVKPAAGQEAMLVLPKHICDRAKVEMLKDSYLYFSMIAWILENKTGPFHEHSNMLYNISGVEHWSKIYSGMVKMFAAEVLAKYNVSQHLLFGRHLPWNTKTM” is “soluble”; for “MRIWSSEHIFDHEWETVAQAAFRKYPNPLNRSITGIDVVKQTLEAGKILTERIIQSHFSIPSWATKLTGFSGTQYSHEYTVIDPTRKEFSLTTRNLNGSSFLRVDEKLTYTPAHEDPNKTILKQDVIVTITLPAFADYCEKTFLSIYSQNANKGRQGVEWVIDHLKKEYEAISTKVSSEVHEMSEKVLRSFGTTSSSSPKPSTPPPPST” it is “not soluble”.

Consider “MHKPCAVIPVYNHETAVPAVVEVLLARGLPCVLVDDASSPQCAAVLEQLAGLDQVFLIRLAINQGKGGAVMAGLREAAQLGFSHALQVDADGQHDLTDVDNFIQHSQAHPEALVCGYPQYDASVPKGRLYARYLTHVWVWINSLSLQIPDSMCGFRVYPLPPTLALLDSVQLGRRMDFDPEILVRLAWRNQPMRWLPTRVHYPQDGLSHFRLFHDNALISKMHAKLFFGMLARLPLILWRRWRPLEHHHHHH”, for which the “soluble on expression in E. coli” value was “not soluble”. Regarding “MGSDKIHHHHHHMAVVDEAKLRYLDFLSREDRVRHHRYVEEMKQYDMMRSGDINAIAESTRLWNSGLYGYLSDDPLKNAKYRFVTTITLATRFAIEGGMDEEDAYNASDLYIQNLENCKTPDDVRRLHTDMMTFFTWAMADMQKAETHSKAVNECLDYIHYHLHEKITVPILAEHVHLNPTYLSELFKRETGTAISQYITDKRMEAAENMLKYSEYSFDEIAQILAYRSQSHFSKVFKKHSGMTPGEYRTKYAQNGIWPE”, the “soluble on expression in E. coli” value is listed as “not soluble”. The entry for “MAVEDEGLRVFQSVKIKIGEAKNLPSYPGPSKMRDCYCTVNLDQEEVFRTKIVEKSLCPFYGEDFYCEIPRSFRHLSFYIFDRDVFRRDSIIGKVAIQKEDLQKYHNRDTWFQLQHVDADSEVQGKVHLELRLSEVITDTGVVCHKLATRIVECQGLPIVNGQCDPYATVTLAGPFRSEAKKTKVKRKTNNPQFDEVFYFEVTRPCSYSKKSHFDFEEEDVDKLEIRVDLWNASNLKFGDEFLGELRIPLKVLRQSSSYEAWYFLQPRDNGSKSLKPDDLGSLRLNVVYTEDHVFSSDYYSPLRDLLLKSADVEPVSASAAHILGEVCREKQEAAVPLVRLFLHYGRVVPFISAIASAEVKRTQDPNTIFRGNSLASKCIDETMKLAGMHYLHVTLKPAIEEICQSHKPCEIDPVKLKDGENLENNMENLRQYVDRVFHAITESGVSCPTVMCDIFFSLREAAAKRFQDDPDVRYTAVSSFIFLRFFAPAILSPNLFQLTPHHTDPQTSRTLTLISKTVQTLGSLSKSKSASFKESYMATFYEFFNEQKYADAVKNFLDLISSSGRRDPKSVEQPIVLKEGFMIKRAQGRKRFGMKNFKKRWFRLTNHEFTYHKSKGDQPLYSIPIENILAVEKLEEESFKMKNMFQVIQPERALYIQANNCVEAKDWIDILTKVSQCNQKRLTVYHPSAYLSGHWLCCRAPSDSAPGCSPCTGGLPANIQLDIDGDRETERIYSLFNLYMSKLEKMQEACGSKSVYDGPEQEEYSTFVIDDPQETYKTLKQVIAGVGALEQEHAQYKRDKFKKTKYGSQEHPIGDKSFQNYIRQQSETSTHSI” is “soluble”; for “MSLGEAEARVVLNMNTGWAFHRGEVESGGQPGLDDSGWIAAIIPHIMQLEKKHCGGDIIYDGVGWYRRTFRVPSQYKDKQIKISFEGVMNACEVYLNGQKISAHRGGYVGFVTDITTRINWDRDNLLAVRVSAEYDPLTPPGKPQAGMDFYYYSGIYRDVEMVISDPLHITHALEEEEVAGGGIFVTYPVVGKEKAVTHVKAHVRNEGKRKRKAQLRTQLIDKSGKIVACQLTPFRLSAGEAIHLEQNLEIVHPSLWHPYDPNLYTLQNEIVENGKVVDCHTESIGIRTIAYTRDGGFYINGESLYLRGANRHQAFAHIGDAAANSMQERDVIDLKRGGCNAVRAAHYPQDPAFLAACDKYGLLVVECIPGWQYFKNDSTFISRLYEVGKQMIRRDRNHPSVILWETALNESRYPAEIARNLYAIAHIEYPGDQMYTAGDYFGHADRVDCFDVFYKQVSRFPKDGDVMSNYPEDQIAVKPLFCREWGDGVGEKPRVSLMENEEEQLKQCRGRFLQLNGHGYFDWCMLDANPRMGGHFLWSYNDYARGAEQETMFCGIVDINRYPKFSYYMMQSMRDKEISQPGLYDGPMVFIASQNTASRYVSSVNEITVFSNCDEVRLFRNHHLIGKQMRKERTPLYRSIVEKGGSPCYVFNAGTYEAGELVAEGIVDGKVVATHSVRTPEQPRQVKIWLKEENIQPVADGSDMIPVYFKVCDSNGTLVNTSDVRIHISVSGEGSLIGDGIERIGINPQLVEGGVGYALIRTTCRPGKIHISVTADGLRGDTREIVTRRYDGEGHHHHHH” it is “not soluble”. The result for “MNERLIFNPKQLTSARIARGLTMKELAEKAELSRQMISNYESGKTIPKADSILKLISVLQFPRSFFSADTFELYSGATFFRSRSAATKKVRDMQKERLKYVQEVYKVLATYVNFPKVCLPELIEKSIYEITEEEIVKKAEELRKIWGLDLISPVPNLIQLAEQNGVIISEANMSNPTLDAVSRWMIGRPFIMLTDNHESAVRRRFNVAHELGHILLHNGVESIHEYSQTELKNIIEYQANLFAAHFLLPSAAFSDSLLSISLEYYIDLKKYWKVSLQSMIQKIYTLALINDDQRLYLNKRIAKNKWKTKEPYDEQLTIEQPEVFQKVYHMILEHQVIPASQLNQAFKLPKEEIEKILGTAIQTEQDKTEIVLELLRSNK” reads “not soluble”. The entry for “ALEEVVRYLGPHNEIPLTLTRDSETGHFLLKHFLPILQQYHDTGNINETNPDSFPTDEERNKLLAHYGIAVNTDDRGELWIELEKCLQLLNMLNLFGLFQDAFEFEEPETDQDEEDPSHSKLPEN” is “soluble”; for “MTLYPFPFTTKKQDAESMVDLFSLIKDYLVDQEDGIRHLITWFLNLVMEEEALLQVGAQRYERTDSRKASRNGYKPRTLLTKYGELELLKPQFREFPFETQVFEKYSRVEQAILSAVAESYLQGVSTRRVDKVMTALGVEGISASSVSRITKELDEKVSEFLSKPIEHEIPYLFIDATYLKVRDGLHYENKALFIVSGVRDDGFREILGARLADSEDSLFWQDLFEDLKERGLRGVKLIVSDGHKGIQKAVRESFIGSSWQMCHVHLIRQALKKVQKKKQKEVADKIKEALVDRHKYNDLIRELDKMEYKSAADTLENFQYDVMNYMQFPQSHWRKIRTTNMMERTNKEIKRRTKVVGAFPNQESVLRLVVSILIDINEDWITGNRYIVMEQ” it is “not soluble”; for “EFKDVFIEKQKGEILGVVIVESGWGSILPTVIIANMMHGGPAEKSGKLNIGDQIMSINGTSLVGLPLSTCQSIIKGLKNQSRVKLNIVRCPPVTTVLIRRPDLRYQLGFSVQNGIICSLMRGGIAERGGVRVGHRIIEINGQSVVATPHEKIVHILSNAVGEIHMKTMPAAMYRLLTAQEQPVYI” it is “soluble”. In the case of “MIVVFDAQCLLCSGFARFLLKHDRRGVLRFASMQGETGRALLRAADVDPEDVDTVLFVRDGRAWRESAAALRILHALGWPWRLAWLGWAVPLPIRDALYRCVARNRYRWFGCSDTCILPPPGAAQRFLDLEHHHHHH”, the “soluble on expression in E. coli” value is reported as “not soluble”. The result for “MAHHHHHHMIGLKSMAGVRDVVRGGSWPARLLDMFTSRAAQESFEFEAVVTDACAAANVPVPSEADLPHARWWKKLCRACQDKAGTTKHGSQLLRSRLTNALTQRLAVEEVYRLNGGEIAKEPAVENPIVIMGLPRSNGHMAAHVLARSGLFLTPRQCDTLSPSLLLDVERRDAFRKKFRGFSYLHPDFLCVRVPQADQVDDDLTLHLMTPQSYAWGLLHGLDEYLLECLEEDQLPVYSEVRRVMELLQWYRKCGHFSEPVTREFNPIDNAMELQAYGTKNVLLRPQWLLYSPFAILSPDAVNTAFPKMKAIWVHRALSQCLPSLCSALCLHNTLYTGKPPSDSQLASMGEKVLGIFGSGTAYAIEYYGKFDQRRMAHWSNRDVKRHATRVATKTLDYFSVELDRYRRMQMISGQTEYVSVSRPLHDAQMPYFCLHDGIIGDVFQDYIYQFAEFAFEKKFGITVKEYTPLAAPADAMAMRGIAHGSSEPRSAPALGAGQPMVGHFQQERRGFR” reads “not soluble”; that for “MSLIYLRKANERGHANHGWLDSWHTFSFANYYDPNFMGFSALRVINDDVIEAGQGFGTHPHKDMEILTYVLEGTVEHQDSMGNKEQVPAGEFQIMSAGTGIRHSEYNPSSTERLHLYQIWIMPEENGITPRYEQRRFDAVQGKQLVLSPDARDGSLKVHQDMELYRWALLKDEQSVHQIAAERRVWIQVVKGNVTINGVKASTSDGLAIWDEQAISIHADSDSEVLLFDLPPVEGGSHHHHHH”, “soluble”; that for “MGDITNEMIWQAIKELAEQLQQTNGQVQQLSQQVQQTNEQVQQLGQQIQHLNSQVQQLNHQVQQTHEQVGQLAKQVQQTNEQLNQLSQQVADMDKRLTDVANGQNILVEELFENKKEIKRVKTALNMY”, “not soluble”.

On to “MIDISHGHTSCSSHRSSSLPSVFWKIHLSPPLPSFKFKKSTESTQRQTIPKFSSPASSLAPSTPLWSLSSCLLVSEVSFWPGAGFLYNDLVCLDREDHCLSNSASHSCG”, for which the “soluble on expression in E. coli” value is “soluble”.

For “GMEFNHLTKQLNQLLAQDYVAFSITENPVVQMLSQASFAQIAYVMQQYSIFPKELVGFTELARRKALGAGWNGVAQELQENIDEEMGSTTGGISHYTLLADGLEEGLGVAVKNTMPSVATSKLLRTVLSLFDRQVDYVLGATYAIEATSIPELTLIVKLVEWLHEGAIPKDLQYFFSKHLDEWEIEHEAGLRTSVAAYIQPEEFGEFAAGFRAMIDAMQVWWQELAQEAISSEVVLSTAIAQHH”, the “soluble on expression in E. coli” value is “soluble”. The entry for “MGHHHHHHSHPKGVLPSHYYESFLEKKGPCDRDYKKFWAGLQGLTIYFYNSNRDFQHVEKLNLGAFEKLTDEIPWGSSRDPGTHFSLILRNQEIKFKVETLECREMWKGFILTVVELRVPTDLTLLPGHLYMMSEVLAK” is “not soluble”.

These data come from the DeepSol protein solubility set.
